Reference: patent publication US6111081A, “Lactoferrin variants and uses thereof” (Baylor College of Medicine, priority 1997, dated 2000)

Test: pH-dependent release of 59Fe (dialysis, liquid scintillation counting)
Type: physicochemical
Conditions: 59Fe-saturated protein dialyzed against buffers pH 7-2, 48 hours, 4° C.; FIG. 4
Procedure: FIG. 4 depicts pH-dependent release of ^59 Fe from the lactoferrin amino-terminal (MN-2Y) and carboxy-terminal (MC-2Y) iron binding defective variants. ^59 Fe-saturated recombinant human lactoferrin (Rec hLF), MN-2Y and MC-2Y were dialyzed against buffers ranging in pH from 7-2. ^59 Fe remaining bound to the lactoferrin samples after dialysis was quantified by liquid scintillation counting and the Fe/protein molar ratio was determined. The data are represented as means ±S.E.M.
MN-2Y, MC-2Y and MNC-4Y (5 mg) were incubated with a four-fold excess of FeCl3 :^59 FeCl3 :NTA (400:1:8). Ward et al., 1995, Biotechnology 13:498-503. The samples were incubated at room temperature for 30 minutes. The samples were purified through NAP-10 column (Pharmacia, Piscataway, N.J.) followed by dialysis against 0.05 M Tris/HCl, 0.2 M NaCl, pH 7.0 for 12 hours to remove any non-specific iron bound to the lactoferrin variants. Iron bound to the lactoferrin variants after dialysis was quantified by liquid scintillation counting. The pH stability of iron binding for each of the lactoferrin variants was carried out as described previously. […]
The lactoferrin variants were saturated with ^59 FeCl3 and dialyzed against buffers ranging in pH from 7-2 for 48 hours at 4° C. The amount of iron remaining bound to the lactoferrin variants was quantified by liquid scintillation counting. […]

B1: recombinant lactoferrin: purified wild-type recombinant human lactoferrin expressed in Aspergillus awamori (protein, UniProt P02788 20-710, looked up)
Lactotransferrin: GRRRSVQWCAVSQPEATKCFQWQRNMRKVRGPPVSCIKRDSPIQCIQAIAENRADAVTLDGGFIYEAGLAPYKLRPVAAEVYGTERQPRTHYYAVAVVKKGGSFQLNELQGLKSCHTGLRRTAGWNVPIGTLRPFLNWTGPPEPIEAAVARFFSASCVPGADKGQFPNLCRLCAGTGENKCAFSSQEPYFSYSGAFKCLRDGAGDVAFIRESTVFEDLSDEAERDEYELLCPDNTRKPVDKFKDCHLARVPSHAVVARSVNGKEDAIWNLLRQAQEKFGKDKSPKFQLFGSPSGQKDLLFKDSAIGFSRVPPRIDSGLYLGSGYFTAIQNLRKSEEEVAARRARVVWCAVGEQELRKCNQWSGLSEGSVTCSSASTTEDCIALVLKGEADAMSLDGGYVYTAGKCGLVPVLAENYKSQQSSDPDPNCVDRPVEGYLAVAVVRRSDTSLTWNSVKGKKSCHTAVDRTAGWNIPMGLLFNQTGSCKFDEYFSQSCAPGSDPRSNLCALCIGDEQGENKCVPNSNERYYGYTGAFRCLAENAGDVAFVKDVTVLQNTDGNNNEAWAKDLKLADFALLCLDGKRKPVTEARSCHLAMAPNHAVVSRMDKVERLKQVLLHQQAKFGRNGSDCPDKFCLFQSETKNLLFNDNTECLARLHGKTTYEKYLGPQYVAGITNLKKCSTSPLLEACEFLRK
- pH at which iron release begins: 5.0
- pH at which iron release is completed: 2.0
